This is an account of results in US20250197495A1 (Bristol-Myers Squibb, published 2025).

Broadly, the EC50 is the concentration at which the effect is half-maximal. Low values mean a more potent agent, high ones a less potent agent.

The assay addresses T1, cynomolgus LAG-3 (cynomolgus).
T1 construct: whole, on cells; also called primate LAG-3
The assay is described as follows: flow cytometry on transfected CHO cells and activated cynomolgus T cells; which cell type gives which end is not stated. In general terms: In flow cytometry, cells or beads pass a laser one at a time.

B1: BMS-986016 (antibody, human IgG4 S228P, kappa, V domains shown)
VH: QVQLQQWGAGLLKPSETLSLTCAVYGGSFSDYYWNWIRQPPGKGLEWIGEINHRGSTNSNPSLKSRVTLSLDTSKNQFSLKLRSVTAADTAVYYCAFGYSDYEYNWFDPWGQGTLVTVSS
VL: EIVLTQSPATLSLSPGERATLSCRASQSISSYLAWYQQKPGQAPRLLIYDASNRATGIPARFSGSGSGTDFTLTISSLEPEDFAVYYCQQRSNWPLTFGQGTNLEIKR
notes: Fully human IgG4 with the stabilizing hinge mutation S228P; also called anti-LAG-3 antibody
With B1, the EC50 fell in the range of 21.5 to 34.3 nM.
